1 variant from IntAct's records for PubMed 19013276 can be followed below.

B1: Cell cycle serine/threonine-protein kinase CDC5/MSD2 (Saccharomyces cerevisiae), P32562 (parent)
chain: MSLGPLKAINDKQLNTRSKLVHTPIKGNTADLVGKENHFKQTKRLDPNNDHHHQPAQKKKREKLSALCKTPPSLIKTRGKDYHRGHFLGEGGFARCFQIKDDSGEIFAAKTVAKASIKSEKTRKKLLSEIQIHKSMSHPNIVQFIDCFEDDSNVYILLEICPNGSLMELLKRRKVLTEPEVRFFTTQICGAIKYMHSRRVIHRDLKLGNIFFDSNYNLKIGDFGLAAVLANESERKYTICGTPNYIAPEVLMGKHSGHSFEVDIWSLGVMLYALLIGKPPFQARDVNTIYERIKCRDFSFPRDKPISDEGKILIRDILSLDPIERPSLTEIMDYVWFRGTFPPSIPSTVMSEAPNFEDIPEEQSLVNFKDCMEKSLLLESMSSDKIQRQKRDYISSIKSSIDKLEEYHQNRPFLPHSLSPGGTKQKYKEVVDIEAQRRLNDLAREARIRRAQQAVLRKELIATSTNVIKSEISLRILASECHLTLNGIVEAEAQYKMGGLPKSRLPKIKHPMIVTKWVDYSNKHGFSYQLSTEDIGVLFNNGTTVLRLADAEEFWYISYDDREGWVASHYLLSEKPRELSRHLEVVDFFAKYMKANLSRVSTFGREEYHKDDVFLRRYTRYKPFVMFELSDGTFQFNFKDHHKMAISDGGKLVTYISPSHESTTYPLVEVLKYGEIPGYPESNFREKLTLIKEGLKQKSTIVTVD
partner: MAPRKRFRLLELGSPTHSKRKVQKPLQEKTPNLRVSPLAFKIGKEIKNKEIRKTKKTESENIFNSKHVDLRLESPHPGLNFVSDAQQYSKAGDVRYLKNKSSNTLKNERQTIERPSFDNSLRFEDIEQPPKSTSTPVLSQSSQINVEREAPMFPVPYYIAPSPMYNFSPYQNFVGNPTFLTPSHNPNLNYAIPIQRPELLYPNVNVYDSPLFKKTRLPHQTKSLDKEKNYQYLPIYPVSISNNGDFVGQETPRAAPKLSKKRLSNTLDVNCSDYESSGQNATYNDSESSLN

Variants of B1 are the subject of one assay. The conditions noted are these: with spo13_yeast SPO13, P23624.
For the variant W517A;V518A;L530A, the “effect of a mutation on the interaction” value is given as “decreasing interaction”.

In a further assay the parent is B1. The following applies: with spo13_yeast SPO13, P23624. The source holds these as a separate data set.
W517A;V518A;L530A: the “effect of a mutation on the interaction” value was “decreasing interaction”.
